In article PMC3377380:

Molecular target: GST-Obsc_(6316–6345) (Rattus norvegicus)
Experiment: SPR

fold slower dissociation than wild type: 3 times
Substance: sAnk1-I102F (MBP fusion) (domain or fragment)
